What was measured:
Experiment in all cases: cell-based or functional assay
[1] = molecular target: Bacillus subtilis xylanase A mutant D119N (Bacillus subtilis) (UniProt P18429)
[2] = molecular target: Bacillus subtilis xylanase A mutant D119Y (Bacillus subtilis) (UniProt P18429)
[3] = molecular target: Bacillus subtilis xylanase A mutant D11F/G34D (Bacillus subtilis) (UniProt P18429)
[4] = molecular target: Bacillus subtilis xylanase A mutant D11F/R122D (Bacillus subtilis) (UniProt P18429)
[5] = molecular target: Bacillus subtilis xylanase A mutant D11N (Bacillus subtilis) (UniProt P18429)
[6] = molecular target: Bacillus subtilis xylanase A mutant D121A (Bacillus subtilis) (UniProt P18429)
[7] = molecular target: Bacillus subtilis xylanase A mutant D121F (Bacillus subtilis) (UniProt P18429)
[8] = molecular target: Bacillus subtilis xylanase A mutant G120K (Bacillus subtilis) (UniProt P18429)
[9] = molecular target: Bacillus subtilis xylanase A mutant G34D (Bacillus subtilis) (UniProt P18429)
[10] = molecular target: Bacillus subtilis xylanase A mutant G34F (Bacillus subtilis) (UniProt P18429)
[11] = molecular target: Bacillus subtilis xylanase A mutant G34T (Bacillus subtilis) (UniProt P18429)
[12] = molecular target: Bacillus subtilis xylanase A mutant I15K (Bacillus subtilis) (UniProt P18429)
[13] = molecular target: Bacillus subtilis xylanase A mutant N114F (Bacillus subtilis) (UniProt P18429)
[14] = molecular target: Bacillus subtilis xylanase A mutant N17D (Bacillus subtilis) (UniProt P18429)
[15] = molecular target: Bacillus subtilis xylanase A mutant N17Y (Bacillus subtilis) (UniProt P18429)
[16] = molecular target: Bacillus subtilis xylanase A mutant N29D (Bacillus subtilis) (UniProt P18429)
[17] = molecular target: Bacillus subtilis xylanase A mutant Q175L (Bacillus subtilis) (UniProt P18429)
[18] = molecular target: Bacillus subtilis xylanase A mutant R122D (Bacillus subtilis) (UniProt P18429)
[19] = molecular target: Bacillus subtilis xylanase A mutant R122F (Bacillus subtilis) (UniProt P18429)
[20] = molecular target: Bacillus subtilis xylanase A mutant S31D (Bacillus subtilis) (UniProt P18429)
[21] = molecular target: Bacillus subtilis xylanase A mutant T123D (Bacillus subtilis) (UniProt P18429)
[22] = molecular target: Bacillus subtilis xylanase A mutant T123K (Bacillus subtilis) (UniProt P18429)
[23] = molecular target: Bacillus subtilis xylanase A mutant T123Y (Bacillus subtilis) (UniProt P18429)
[24] = molecular target: Bacillus subtilis xylanase A mutant Y113A (Bacillus subtilis) (UniProt P18429)
[25] = molecular target: Bacillus subtilis xylanase A mutant Y113D (Bacillus subtilis) (UniProt P18429)
[26] = molecular target: Thermomyces lanuginosus wildtype xylanase A (Thermomyces lanuginosus) (UniProt O43097)
[27] = molecular target: Thermomyces lanuginosus xylanase A mutant D19F (Thermomyces lanuginosus) (UniProt O43097)

Work on wheat endogenous xylanase inhibitor yielded a Relative inhibition, % at 1, 26 XIU/ml [1] of 91%, a Relative inhibition, % at 3, 15 XIU/ml [1] of 74% and a Relative inhibition, % at 6, 3 XIU/ml [1] of 44%. It also gave a Relative inhibition, % at 12, 6 XIU/ml [1] of 22%, a Relative inhibition, % at 1, 26 XIU/ml [2] of 87% and a Relative inhibition, % at 3, 15 XIU/ml [2] of 50%. The Relative inhibition, % at 6, 3 XIU/ml [2] was 28%, the Relative inhibition, % at 12, 6 XIU/ml [2] was 22% and the Relative inhibition, % at 1, 26 XIU/ml [3] was 104%. For the same substance, the Relative inhibition, % at 3, 15 XIU/ml [3] was 106%, the Relative inhibition, % at 6, 3 XIU/ml [3] was 103% and the Relative inhibition, % at 12, 6 XIU/ml [3] was 104%. It also gave a Relative inhibition, % at 1, 26 XIU/ml [4] of 109%, a Relative inhibition, % at 3, 15 XIU/ml [4] of 111% and a Relative inhibition, % at 6, 3 XIU/ml [4] of 110%. The Relative inhibition, % at 12, 6 XIU/ml [4] was 109%, the Relative inhibition, % at 1, 26 XIU/ml [5] was 93% and the Relative inhibition, % at 3, 15 XIU/ml [5] was 72%. For the same substance, the Relative inhibition, % at 6, 3 XIU/ml [5] was 53%, the Relative inhibition, % at 12, 6 XIU/ml [5] was 32% and the Relative inhibition, % at 1, 26 XIU/ml [6] was 81%. For the same substance, the Relative inhibition, % at 3, 15 XIU/ml [6] was 50%, the Relative inhibition, % at 6, 3 XIU/ml [6] was 27% and the Relative inhibition, % at 12, 6 XIU/ml [6] was 21%. The Relative inhibition, % at 1, 26 XIU/ml [7] was 101%, the Relative inhibition, % at 3, 15 XIU/ml [7] was 89% and the Relative inhibition, % at 6, 3 XIU/ml [7] was 72%. It also gave a Relative inhibition, % at 12, 6 XIU/ml [7] of 60%, a Relative inhibition, % at 1, 26 XIU/ml [8] of 85% and a Relative inhibition, % at 3, 15 XIU/ml [8] of 52%. It also gave a Relative inhibition, % at 6, 3 XIU/ml [8] of 29%, a Relative inhibition, % at 12, 6 XIU/ml [8] of 22% and a Relative inhibition, % at 1, 26 XIU/ml [9] of 94%. For the same substance, the Relative inhibition, % at 3, 15 XIU/ml [9] was 83%, the Relative inhibition, % at 6, 3 XIU/ml [9] was 70% and the Relative inhibition, % at 12, 6 XIU/ml [9] was 53%. For the same substance, the Relative inhibition, % at 1, 26 XIU/ml [10] was 76%, the Relative inhibition, % at 3, 15 XIU/ml [10] was 53% and the Relative inhibition, % at 6, 3 XIU/ml [10] was 34%. For the same substance, the Relative inhibition, % at 12, 6 XIU/ml [10] was 29%, the Relative inhibition, % at 1, 26 XIU/ml [11] was 99% and the Relative inhibition, % at 3, 15 XIU/ml [11] was 99%. For the same substance, the Relative inhibition, % at 6, 3 XIU/ml [11] was 93%, the Relative inhibition, % at 12, 6 XIU/ml [11] was 86% and the Relative inhibition, % at 1, 26 XIU/ml [12] was 84%. For the same substance, the Relative inhibition, % at 3, 15 XIU/ml [12] was 47%, the Relative inhibition, % at 6, 3 XIU/ml [12] was 28% and the Relative inhibition, % at 12, 6 XIU/ml [12] was 23%. The Relative inhibition, % at 1, 26 XIU/ml [13] was 84%, the Relative inhibition, % at 3, 15 XIU/ml [13] was 54% and the Relative inhibition, % at 6, 3 XIU/ml [13] was 39%. It also gave a Relative inhibition, % at 12, 6 XIU/ml [13] of 34%, a Relative inhibition, % at 1, 26 XIU/ml [14] of 90% and a Relative inhibition, % at 3, 15 XIU/ml [14] of 81%. It also gave a Relative inhibition, % at 6, 3 XIU/ml [14] of 50%, a Relative inhibition, % at 12, 6 XIU/ml [14] of 22% and a Relative inhibition, % at 1, 26 XIU/ml [15] of 79%. The Relative inhibition, % at 3, 15 XIU/ml [15] was 42%, the Relative inhibition, % at 6, 3 XIU/ml [15] was 23% and the Relative inhibition, % at 12, 6 XIU/ml [15] was 19%. The Relative inhibition, % at 1, 26 XIU/ml [16] was 74%, the Relative inhibition, % at 3, 15 XIU/ml [16] was 44% and the Relative inhibition, % at 6, 3 XIU/ml [16] was 26%. For the same substance, the Relative inhibition, % at 12, 6 XIU/ml [16] was 20%, the Relative inhibition, % at 1, 26 XIU/ml [17] was 78% and the Relative inhibition, % at 3, 15 XIU/ml [17] was 42%. The Relative inhibition, % at 6, 3 XIU/ml [17] was 25%, the Relative inhibition, % at 12, 6 XIU/ml [17] was 23% and the Relative inhibition, % at 1, 26 XIU/ml [18] was 85%. For the same substance, the Relative inhibition, % at 3, 15 XIU/ml [18] was 59%, the Relative inhibition, % at 6, 3 XIU/ml [18] was 41% and the Relative inhibition, % at 12, 6 XIU/ml [18] was 28%. It also gave a Relative inhibition, % at 1, 26 XIU/ml [19] of 93%, a Relative inhibition, % at 3, 15 XIU/ml [19] of 74% and a Relative inhibition, % at 6, 3 XIU/ml [19] of 58%. It also gave a Relative inhibition, % at 12, 6 XIU/ml [19] of 58%, a Relative inhibition, % at 1, 26 XIU/ml [20] of 79% and a Relative inhibition, % at 3, 15 XIU/ml [20] of 52%. The Relative inhibition, % at 6, 3 XIU/ml [20] was 30%, the Relative inhibition, % at 12, 6 XIU/ml [20] was 24% and the Relative inhibition, % at 1, 26 XIU/ml [21] was 83%. For the same substance, the Relative inhibition, % at 3, 15 XIU/ml [21] was 36%, the Relative inhibition, % at 6, 3 XIU/ml [21] was 20% and the Relative inhibition, % at 12, 6 XIU/ml [21] was 17%. The Relative inhibition, % at 1, 26 XIU/ml [22] was 80%, the Relative inhibition, % at 3, 15 XIU/ml [22] was 46% and the Relative inhibition, % at 6, 3 XIU/ml [22] was 30%. It also gave a Relative inhibition, % at 12, 6 XIU/ml [22] of 25%, a Relative inhibition, % at 1, 26 XIU/ml [23] of 80% and a Relative inhibition, % at 3, 15 XIU/ml [23] of 47%. The Relative inhibition, % at 6, 3 XIU/ml [23] was 28%, the Relative inhibition, % at 12, 6 XIU/ml [23] was 27% and the Relative inhibition, % at 1, 26 XIU/ml [24] was 96%. The Relative inhibition, % at 3, 15 XIU/ml [24] was 80%, the Relative inhibition, % at 6, 3 XIU/ml [24] was 62% and the Relative inhibition, % at 12, 6 XIU/ml [24] was 43%. For the same substance, the Relative inhibition, % at 1, 26 XIU/ml [25] was 96%, the Relative inhibition, % at 3, 15 XIU/ml [25] was 81% and the Relative inhibition, % at 6, 3 XIU/ml [25] was 63%. It also gave a Relative inhibition, % at 12, 6 XIU/ml [25] of 45%, a Relative inhibition, % at 1, 26 XIU/ml [26] of 45% and a Relative inhibition, % at 3, 15 XIU/ml [26] of 24%. The Relative inhibition, % at 6, 3 XIU/ml [26] was 17%, the Relative inhibition, % at 12, 6 XIU/ml [26] was 14% and the Relative inhibition, % at 1, 26 XIU/ml [27] was 73%. It also gave a Relative inhibition, % at 3, 15 XIU/ml [27] of 38%, a Relative inhibition, % at 6, 3 XIU/ml [27] of 24% and a Relative inhibition, % at 12, 6 XIU/ml [27] of 20%.

Reference: patent publication US20030180895A1
